Measurements from the RNAGym collection of RNA variant scans (doi:10.1073/pnas.2313332121).

B1: TPR t1 (parent)
chain: GACCAAUCUGCCCUCAGAGCUCGAGAACAUCUUCGGAUGCAGAGGAGGCAGGCUUCGGUGGCGCGAUAGCGCCAACGUCCUCAACCUCCAAUGCAUCCCACCACAUGAUGAUGCCUGAAGAGCCUUGGUUUUUUG

Variants of: B1
Assay: polymerase ribozyme fitness, log enrichment relative to wild type (log ratio); higher = more active; in vitro selection for triplet polymerase activity
Procedure, shortened: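 A heterodimeric triplet polymerase ribozyme had each of its subunits mutagenized by PCR into a library, which was transcribed. One round of in vitro selection, done in triplicate, annealed each library with a biotinylated primer, its partner subunit and triplets, then incubated it frozen at −7 °C before gel excision of extended constructs, streptavidin-bead capture and RT-PCR. Fitness is the logarithm of genotype enrichment relative to wild-type enrichment, based on Illumina sequencing of inputs and outputs and inverse-variance-weighted replicate averages. A base-2 logarithm is used, and genotypes were kept only with ≥10 input reads and ≥1 read per output.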
For C15G U55A C70A A83U C97U U130C, the “polymerase ribozyme fitness (log ratio)” value was -5.79.
With G71A U81G A83U C124A the “polymerase ribozyme fitness (log ratio)” value was -7.19.
For C8U A37C C53U, the “polymerase ribozyme fitness (log ratio)” value was 0.264.
In the case of A26C G69U, the “polymerase ribozyme fitness (log ratio)” value is reported as -3.86.
In the case of A50G C85G, the “polymerase ribozyme fitness (log ratio)” value is reported as -0.79.
For G117C G127A, the “polymerase ribozyme fitness (log ratio)” value was -6.44.
With C13A A27C G36A the “polymerase ribozyme fitness (log ratio)” value was -4.52.
For C3U C94U U106C, the “polymerase ribozyme fitness (log ratio)” value was -0.635.
In the case of C4U C70A, the “polymerase ribozyme fitness (log ratio)” value is reported as -2.42.
For C56A U81A G117A, the “polymerase ribozyme fitness (log ratio)” value was -1.94.
With G17A C40G G60A A83C A84C A121C the “polymerase ribozyme fitness (log ratio)” value was -3.61.
For G61A A121U, the “polymerase ribozyme fitness (log ratio)” value was 2.32.
For A50U C123G U131G, the “polymerase ribozyme fitness (log ratio)” value was 0.128.
In the case of A6G G63U C124A G128U, the “polymerase ribozyme fitness (log ratio)” value is reported as -1.92.
With G60A G61A C88A G120C A121U the “polymerase ribozyme fitness (log ratio)” value was -2.51.
In the case of C72U C86A, the “polymerase ribozyme fitness (log ratio)” value is reported as -0.584.
For C34A A46U A75G C102U A111G, the “polymerase ribozyme fitness (log ratio)” value was -3.22.
In the case of C22G A41C G44C G69U C79G A90C, the “polymerase ribozyme fitness (log ratio)” value is reported as -5.69.
For C56G G57U C101G A111C, the “polymerase ribozyme fitness (log ratio)” value was -1.77.
In the case of G36U C49U, the “polymerase ribozyme fitness (log ratio)” value is reported as -2.72.
With C79U A118C the “polymerase ribozyme fitness (log ratio)” value was -2.46.
For U112G G127A, the “polymerase ribozyme fitness (log ratio)” value was -1.12.
With A2U C72G C101G C124A the “polymerase ribozyme fitness (log ratio)” value was -2.28.
For A26U G69A U78G U106A, the “polymerase ribozyme fitness (log ratio)” value was -4.44.
In the case of C3G G10A U106A, the “polymerase ribozyme fitness (log ratio)” value is reported as -2.9.
In the case of C11U C22A C124U, the “polymerase ribozyme fitness (log ratio)” value is reported as -3.19.
In the case of C11U U112A, the “polymerase ribozyme fitness (log ratio)” value is reported as 1.19.
With G42C G44U G117U A118U the “polymerase ribozyme fitness (log ratio)” value was -5.32.
For U55G C73U G110A, the “polymerase ribozyme fitness (log ratio)” value was -0.834.
For A6G C12U G36U G52U C70U U96G A121C, the “polymerase ribozyme fitness (log ratio)” value was -2.52.
In the case of A6C G10A C13A A75G U125G, the “polymerase ribozyme fitness (log ratio)” value is reported as -0.518.
With G52C C56G G71U the “polymerase ribozyme fitness (log ratio)” value was -3.4.
With G61U U87G U106A the “polymerase ribozyme fitness (log ratio)” value was -0.129.
In the case of C76A, the “polymerase ribozyme fitness (log ratio)” value is reported as -0.611.
For U30C U78G, the “polymerase ribozyme fitness (log ratio)” value was -3.78.
With A16U C102U the “polymerase ribozyme fitness (log ratio)” value was -3.23.
In the case of G60A G69A U87A, the “polymerase ribozyme fitness (log ratio)” value is reported as -3.78.
For G61U G113U, the “polymerase ribozyme fitness (log ratio)” value was -1.12.
In the case of U7G G17U A27C C53U C56A, the “polymerase ribozyme fitness (log ratio)” value is reported as -4.57.
For G36U G69A, the “polymerase ribozyme fitness (log ratio)” value was -4.06.
In the case of A6U G44A C56U, the “polymerase ribozyme fitness (log ratio)” value is reported as -0.291.
For C22G C72A C88U, the “polymerase ribozyme fitness (log ratio)” value was -2.7.
For C70G C97U U116A G117A, the “polymerase ribozyme fitness (log ratio)” value was -5.25.
In the case of A26G G69U, the “polymerase ribozyme fitness (log ratio)” value is reported as -2.23.
With U96A A121G the “polymerase ribozyme fitness (log ratio)” value was 0.527.
With C53G C62U A119U the “polymerase ribozyme fitness (log ratio)” value was -0.561.
With C49U C70U the “polymerase ribozyme fitness (log ratio)” value was -1.33.
For C22U G51A G61C U109A G117C, the “polymerase ribozyme fitness (log ratio)” value was -7.16.
For A37U G63U A105C, the “polymerase ribozyme fitness (log ratio)” value was -5.31.
With C40U G45U G63U U78C the “polymerase ribozyme fitness (log ratio)” value was -4.36.
In the case of C72U G77U C104A, the “polymerase ribozyme fitness (log ratio)” value is reported as -2.21.
In the case of G45C A119G U131G U132A, the “polymerase ribozyme fitness (log ratio)” value is reported as 0.0169.
In the case of C62U A95U, the “polymerase ribozyme fitness (log ratio)” value is reported as -2.57.
For G69C U81G, the “polymerase ribozyme fitness (log ratio)” value was -5.01.
In the case of A6G G71A C101A, the “polymerase ribozyme fitness (log ratio)” value is reported as -3.04.
For C20U U132C, the “polymerase ribozyme fitness (log ratio)” value was -1.93.
For G61A U106A G113C, the “polymerase ribozyme fitness (log ratio)” value was -1.85.
With G45U C124G U133A the “polymerase ribozyme fitness (log ratio)” value was 0.519.
With C70G U96A the “polymerase ribozyme fitness (log ratio)” value was -4.79.
With A5C U55G the “polymerase ribozyme fitness (log ratio)” value was -0.672.
With C4U C72A A91G G117C the “polymerase ribozyme fitness (log ratio)” value was -5.33.
For G48C C73U, the “polymerase ribozyme fitness (log ratio)” value was -0.559.
For C56G G93U, the “polymerase ribozyme fitness (log ratio)” value was -2.19.
For G17U U21A, the “polymerase ribozyme fitness (log ratio)” value was -3.26.
In the case of C11G A41U G47C U59A, the “polymerase ribozyme fitness (log ratio)” value is reported as -3.12.
With C49G A90U G117A the “polymerase ribozyme fitness (log ratio)” value was -3.8.
With U92A C115U the “polymerase ribozyme fitness (log ratio)” value was -3.78.
For G19C C40U G93U C114G G122A, the “polymerase ribozyme fitness (log ratio)” value was -0.927.
In the case of U78C A111C, the “polymerase ribozyme fitness (log ratio)” value is reported as 0.402.
For G17C A121G U133A, the “polymerase ribozyme fitness (log ratio)” value was -1.73.
In the case of A43U C53A C62A G93A U112C G128U, the “polymerase ribozyme fitness (log ratio)” value is reported as -4.57.
For C31U G63U G107A, the “polymerase ribozyme fitness (log ratio)” value was -2.29.
In the case of C82A U116C, the “polymerase ribozyme fitness (log ratio)” value is reported as -0.539.
In the case of G36U C82A G113U, the “polymerase ribozyme fitness (log ratio)” value is reported as -3.08.
With C20G G44U C56A A68G C98A C114U the “polymerase ribozyme fitness (log ratio)” value was -6.77.
For C8A A50U C89A A90G, the “polymerase ribozyme fitness (log ratio)” value was -2.46.
In the case of C34A G58A, the “polymerase ribozyme fitness (log ratio)” value is reported as -2.81.
With G61U C102G G120C the “polymerase ribozyme fitness (log ratio)” value was -6.46.
In the case of G61U G77C C79U, the “polymerase ribozyme fitness (log ratio)” value is reported as -0.442.
With G44A C89G C115A C124A U129A the “polymerase ribozyme fitness (log ratio)” value was -1.46.
For C8U C56U G61A A95U G120A, the “polymerase ribozyme fitness (log ratio)” value was -6.04.
In the case of A43C G45A A50G G113U G120C, the “polymerase ribozyme fitness (log ratio)” value is reported as -1.89.
For G60U U92C U106C G107A U112C, the “polymerase ribozyme fitness (log ratio)” value was -6.06.
